Laboratory results from patent US20210388110A1 (published 2021).

target: T1, soluble human GPC3 (human, UniProt P51654 25-563, limits assumed); test: SPR (Biacore), soluble human GPC3
T1 construct: soluble human GPC3 as analyte; also called glypican 3
T1 sequence (P51654 other isoform, or with tags, fused parts or gaps limits assumed, form in doubt): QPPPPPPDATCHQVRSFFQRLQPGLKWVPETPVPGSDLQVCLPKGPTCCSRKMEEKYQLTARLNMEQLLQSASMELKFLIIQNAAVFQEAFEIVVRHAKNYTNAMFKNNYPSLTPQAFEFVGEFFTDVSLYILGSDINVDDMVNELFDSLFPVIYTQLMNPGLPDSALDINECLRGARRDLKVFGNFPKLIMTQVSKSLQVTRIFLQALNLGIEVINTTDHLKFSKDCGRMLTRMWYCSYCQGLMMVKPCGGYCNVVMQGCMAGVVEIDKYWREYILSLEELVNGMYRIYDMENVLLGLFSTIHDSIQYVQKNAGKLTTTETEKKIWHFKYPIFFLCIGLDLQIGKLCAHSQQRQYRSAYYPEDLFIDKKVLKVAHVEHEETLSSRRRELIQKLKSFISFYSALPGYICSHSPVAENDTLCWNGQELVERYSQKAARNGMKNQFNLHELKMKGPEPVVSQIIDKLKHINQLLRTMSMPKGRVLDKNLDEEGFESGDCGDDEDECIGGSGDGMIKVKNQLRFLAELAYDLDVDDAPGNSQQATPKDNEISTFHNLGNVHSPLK

| Binder | Kd [nM] |
| --- | --- |
| H0610-G1dh/none-Hi-Kn010G3/L0219-k0 (antibody, human IgG1, kappa, single-arm (one Fab)) heavy: not shown EPKSSDKTHTCPPCPAPELLGGPSVFLFPPKPKDTLMISRTPEVTCVVVDVSHEDPEVKFNWYVDGVEVHNAKTKPREEQYNSTYRVVSVLTVLHQDWLNGKEYKCKVSNKALPAPIEKTISKAKGQPREPQVCTLPPSRDELTKNQVSLWCLVKGFYPSDIAVEWESNGQPENNYKTTPPVLDSDGSFFLYSKLTVDKSRWQQGNVFSCSVMHEALHNRYTQKSLSLSP light: DIVMTQSPLSLPVTPGEPASISCRSSQSLVHSNRNTYIHWYQQKPGQAPRLLIYKVSNRFRGVPDRFSGSGSGTDFTLKISRVEAEDVGVYYCGQGTQVPYTFGQGTKLEIKRTVAAPSVFIFPPSDEQLKSGTASVVCLLNNFYPREAKVQWKVDNALQSGNSQESVTEQDSKDSTYSLSSTLTLSKADYEKHKVYACEVTHQGLSSPVTKSFNRGEC | 2.28 |
| H0610-G1dh/none-Hi-Kn010G3/L0222-k0 (antibody, human IgG1, kappa, single-arm (one Fab)) heavy: not shown EPKSSDKTHTCPPCPAPELLGGPSVFLFPPKPKDTLMISRTPEVTCVVVDVSHEDPEVKFNWYVDGVEVHNAKTKPREEQYNSTYRVVSVLTVLHQDWLNGKEYKCKVSNKALPAPIEKTISKAKGQPREPQVCTLPPSRDELTKNQVSLWCLVKGFYPSDIAVEWESNGQPENNYKTTPPVLDSDGSFFLYSKLTVDKSRWQQGNVFSCSVMHEALHNRYTQKSLSLSP light: DIVMTQSPLSLPVTPGEPASISCRSSQSPVHSNRNTYIQWYQQKPGQAPRLLIYKVSNRFSGVPDRFSGSGSGTDFTLKISRVEAEDVGVYYCYQGTQVPYTFGQGTKLEIKRTVAAPSVFIFPPSDEQLKSGTASVVCLLNNFYPREAKVQWKVDNALQSGNSQESVTEQDSKDSTYSLSSTLTLSKADYEKHKVYACEVTHQGLSSPVTKSFNRGEC | 0.00014 |
| H0610-G1dh/none-Hi-Kn010G3/L0224-k0 (antibody, human IgG1, kappa, single-arm (one Fab)) heavy: not shown EPKSSDKTHTCPPCPAPELLGGPSVFLFPPKPKDTLMISRTPEVTCVVVDVSHEDPEVKFNWYVDGVEVHNAKTKPREEQYNSTYRVVSVLTVLHQDWLNGKEYKCKVSNKALPAPIEKTISKAKGQPREPQVCTLPPSRDELTKNQVSLWCLVKGFYPSDIAVEWESNGQPENNYKTTPPVLDSDGSFFLYSKLTVDKSRWQQGNVFSCSVMHEALHNRYTQKSLSLSP light: DIVMTQSPLSLPVTPGEPASISCRSSQSPVHSNRNTYIHWYQQKPGQAPRLLIYKVSNRFPGVPDRFSGSGSGTDFTLKISRVEAEDVGVYYCYQGTQVPYTFGQGTKLEIKRTVAAPSVFIFPPSDEQLKSGTASVVCLLNNFYPREAKVQWKVDNALQSGNSQESVTEQDSKDSTYSLSSTLTLSKADYEKHKVYACEVTHQGLSSPVTKSFNRGEC | 0.243 |
| H0610-G1dh/none-Hi-Kn010G3/L0226-k0 (antibody, human IgG1, kappa, single-arm (one Fab)) heavy: not shown EPKSSDKTHTCPPCPAPELLGGPSVFLFPPKPKDTLMISRTPEVTCVVVDVSHEDPEVKFNWYVDGVEVHNAKTKPREEQYNSTYRVVSVLTVLHQDWLNGKEYKCKVSNKALPAPIEKTISKAKGQPREPQVCTLPPSRDELTKNQVSLWCLVKGFYPSDIAVEWESNGQPENNYKTTPPVLDSDGSFFLYSKLTVDKSRWQQGNVFSCSVMHEALHNRYTQKSLSLSP light: DIVMTQSPLSLPVTPGEPASISCRSSQSPVHSNRNTYIHWYQQKPGQAPRLLIYKVSNRFSGVPDRFSGSGSGTDFTLKISRVEAEDVGVYYCIQGTQVPYTFGQGTKLEIKRTVAAPSVFIFPPSDEQLKSGTASVVCLLNNFYPREAKVQWKVDNALQSGNSQESVTEQDSKDSTYSLSSTLTLSKADYEKHKVYACEVTHQGLSSPVTKSFNRGEC | 0.093 |
| H0610-G1dh/none-Hi-Kn010G3/L0229-k0 (antibody, human IgG1, kappa, single-arm (one Fab)) heavy: not shown EPKSSDKTHTCPPCPAPELLGGPSVFLFPPKPKDTLMISRTPEVTCVVVDVSHEDPEVKFNWYVDGVEVHNAKTKPREEQYNSTYRVVSVLTVLHQDWLNGKEYKCKVSNKALPAPIEKTISKAKGQPREPQVCTLPPSRDELTKNQVSLWCLVKGFYPSDIAVEWESNGQPENNYKTTPPVLDSDGSFFLYSKLTVDKSRWQQGNVFSCSVMHEALHNRYTQKSLSLSP light: DIVMTQSPLSLPVTPGEPASISCRSSQSPVHSNRNTYIHWYQQKPGQAPRLLIYKVSNRFSGVPDRFSGSGSGTDFTLKISRVEAEDVGVYYCYQSTQVPYTFGQGTKLEIKRTVAAPSVFIFPPSDEQLKSGTASVVCLLNNFYPREAKVQWKVDNALQSGNSQESVTEQDSKDSTYSLSSTLTLSKADYEKHKVYACEVTHQGLSSPVTKSFNRGEC | 1.2 |
| H0610-G1dh/none-Hi-Kn010G3/L0231-k0 (antibody, human IgG1, kappa, single-arm (one Fab)) heavy: not shown EPKSSDKTHTCPPCPAPELLGGPSVFLFPPKPKDTLMISRTPEVTCVVVDVSHEDPEVKFNWYVDGVEVHNAKTKPREEQYNSTYRVVSVLTVLHQDWLNGKEYKCKVSNKALPAPIEKTISKAKGQPREPQVCTLPPSRDELTKNQVSLWCLVKGFYPSDIAVEWESNGQPENNYKTTPPVLDSDGSFFLYSKLTVDKSRWQQGNVFSCSVMHEALHNRYTQKSLSLSP light: DIVMTQSPLSLPVTPGEPASISCRSSQSPVHSNRNTYIHWYQQKPGQAPRLLIYKVSNRFSGVPDRFSGSGSGTDFTLKISRVEAEDVGVYYCYQGTQWPYTFGQGTKLEIKRTVAAPSVFIFPPSDEQLKSGTASVVCLLNNFYPREAKVQWKVDNALQSGNSQESVTEQDSKDSTYSLSSTLTLSKADYEKHKVYACEVTHQGLSSPVTKSFNRGEC | 0.589 |
| H0610-G1dh/none-Hi-Kn010G3/L0228-k0 (antibody, human IgG1, kappa, single-arm (one Fab)) heavy: not shown EPKSSDKTHTCPPCPAPELLGGPSVFLFPPKPKDTLMISRTPEVTCVVVDVSHEDPEVKFNWYVDGVEVHNAKTKPREEQYNSTYRVVSVLTVLHQDWLNGKEYKCKVSNKALPAPIEKTISKAKGQPREPQVCTLPPSRDELTKNQVSLWCLVKGFYPSDIAVEWESNGQPENNYKTTPPVLDSDGSFFLYSKLTVDKSRWQQGNVFSCSVMHEALHNRYTQKSLSLSP light: DIVMTQSPLSLPVTPGEPASISCRSSQSPVHSNRNTYIHWYQQKPGQAPRLLIYKVSNRFSGVPDRFSGSGSGTDFTLKISRVEAEDVGVYYCVQGTQVPYTFGQGTKLEIKRTVAAPSVFIFPPSDEQLKSGTASVVCLLNNFYPREAKVQWKVDNALQSGNSQESVTEQDSKDSTYSLSSTLTLSKADYEKHKVYACEVTHQGLSSPVTKSFNRGEC | 0.202 |
| H0610-G1dh/none-Hi-Kn010G3/L0234-k0 (antibody, human IgG1, kappa, single-arm (one Fab)) heavy: not shown EPKSSDKTHTCPPCPAPELLGGPSVFLFPPKPKDTLMISRTPEVTCVVVDVSHEDPEVKFNWYVDGVEVHNAKTKPREEQYNSTYRVVSVLTVLHQDWLNGKEYKCKVSNKALPAPIEKTISKAKGQPREPQVCTLPPSRDELTKNQVSLWCLVKGFYPSDIAVEWESNGQPENNYKTTPPVLDSDGSFFLYSKLTVDKSRWQQGNVFSCSVMHEALHNRYTQKSLSLSP light: DIVMTQSPLSLPVTPGEPASISCRSSQEPVHSNRNTYLHWYQQKPGQAPRLLIYKVSNRFRGVPDRFSGSGSGTDFTLKISRVEAEDVGVYYCGQGTQVPYTFGQGTKLEIKRTVAAPSVFIFPPSDEQLKSGTASVVCLLNNFYPREAKVQWKVDNALQSGNSQESVTEQDSKDSTYSLSSTLTLSKADYEKHKVYACEVTHQGLSSPVTKSFNRGEC | 0.778 |
| H0610-G1dh/none-Hi-Kn010G3/L0233-k0 (antibody, human IgG1, kappa, single-arm (one Fab)) heavy: not shown EPKSSDKTHTCPPCPAPELLGGPSVFLFPPKPKDTLMISRTPEVTCVVVDVSHEDPEVKFNWYVDGVEVHNAKTKPREEQYNSTYRVVSVLTVLHQDWLNGKEYKCKVSNKALPAPIEKTISKAKGQPREPQVCTLPPSRDELTKNQVSLWCLVKGFYPSDIAVEWESNGQPENNYKTTPPVLDSDGSFFLYSKLTVDKSRWQQGNVFSCSVMHEALHNRYTQKSLSLSP light: DIVMTQSPLSLPVTPGEPASISCRSSQELVHSNRNTYLHWYQQKPGQAPRLLIYKVSNRFSGVPDRFSGSGSGTDFTLKISRVEAEDVGVYYCGQGTQVPYTFGQGTKLEIKRTVAAPSVFIFPPSDEQLKSGTASVVCLLNNFYPREAKVQWKVDNALQSGNSQESVTEQDSKDSTYSLSSTLTLSKADYEKHKVYACEVTHQGLSSPVTKSFNRGEC | 3.55 |
| H0610-G1dh/none-Hi-Kn010G3/L0227-k0 (antibody, human IgG1, kappa, single-arm (one Fab)) heavy: not shown EPKSSDKTHTCPPCPAPELLGGPSVFLFPPKPKDTLMISRTPEVTCVVVDVSHEDPEVKFNWYVDGVEVHNAKTKPREEQYNSTYRVVSVLTVLHQDWLNGKEYKCKVSNKALPAPIEKTISKAKGQPREPQVCTLPPSRDELTKNQVSLWCLVKGFYPSDIAVEWESNGQPENNYKTTPPVLDSDGSFFLYSKLTVDKSRWQQGNVFSCSVMHEALHNRYTQKSLSLSP light: DIVMTQSPLSLPVTPGEPASISCRSSQSPVHSNRNTYIHWYQQKPGQAPRLLIYKVSNRFSGVPDRFSGSGSGTDFTLKISRVEAEDVGVYYCLQGTQVPYTFGQGTKLEIKRTVAAPSVFIFPPSDEQLKSGTASVVCLLNNFYPREAKVQWKVDNALQSGNSQESVTEQDSKDSTYSLSSTLTLSKADYEKHKVYACEVTHQGLSSPVTKSFNRGEC | 0.408 |
| H0610-G1dh/none-Hi-Kn010G3/L0223-k0 (antibody, human IgG1, kappa, single-arm (one Fab)) heavy: not shown EPKSSDKTHTCPPCPAPELLGGPSVFLFPPKPKDTLMISRTPEVTCVVVDVSHEDPEVKFNWYVDGVEVHNAKTKPREEQYNSTYRVVSVLTVLHQDWLNGKEYKCKVSNKALPAPIEKTISKAKGQPREPQVCTLPPSRDELTKNQVSLWCLVKGFYPSDIAVEWESNGQPENNYKTTPPVLDSDGSFFLYSKLTVDKSRWQQGNVFSCSVMHEALHNRYTQKSLSLSP light: DIVMTQSPLSLPVTPGEPASISCRSSQSPVHSNRNTYIHWYQQKPGQAPRLLIYKVSNRLSGVPDRFSGSGSGTDFTLKISRVEAEDVGVYYCYQGTQVPYTFGQGTKLEIKRTVAAPSVFIFPPSDEQLKSGTASVVCLLNNFYPREAKVQWKVDNALQSGNSQESVTEQDSKDSTYSLSSTLTLSKADYEKHKVYACEVTHQGLSSPVTKSFNRGEC | 0.475 |
| H0610-G1dh/none-Hi-Kn010G3/L0220-k0 (antibody, human IgG1, kappa, single-arm (one Fab)) heavy: not shown EPKSSDKTHTCPPCPAPELLGGPSVFLFPPKPKDTLMISRTPEVTCVVVDVSHEDPEVKFNWYVDGVEVHNAKTKPREEQYNSTYRVVSVLTVLHQDWLNGKEYKCKVSNKALPAPIEKTISKAKGQPREPQVCTLPPSRDELTKNQVSLWCLVKGFYPSDIAVEWESNGQPENNYKTTPPVLDSDGSFFLYSKLTVDKSRWQQGNVFSCSVMHEALHNRYTQKSLSLSP light: DIVMTQSPLSLPVTPGEPASISCRSSQPLVHSNRNTYLHWYQQKPGQAPRLLIYKVSNRFRGVPDRFSGSGSGTDFTLKISRVEAEDVGVYYCYQGTQVPYTFGQGTKLEIKRTVAAPSVFIFPPSDEQLKSGTASVVCLLNNFYPREAKVQWKVDNALQSGNSQESVTEQDSKDSTYSLSSTLTLSKADYEKHKVYACEVTHQGLSSPVTKSFNRGEC | 1.36 |
| H0610-G1dh/none-Hi-Kn010G3/L0230-k0 (antibody, human IgG1, kappa, single-arm (one Fab)) heavy: not shown EPKSSDKTHTCPPCPAPELLGGPSVFLFPPKPKDTLMISRTPEVTCVVVDVSHEDPEVKFNWYVDGVEVHNAKTKPREEQYNSTYRVVSVLTVLHQDWLNGKEYKCKVSNKALPAPIEKTISKAKGQPREPQVCTLPPSRDELTKNQVSLWCLVKGFYPSDIAVEWESNGQPENNYKTTPPVLDSDGSFFLYSKLTVDKSRWQQGNVFSCSVMHEALHNRYTQKSLSLSP light: DIVMTQSPLSLPVTPGEPASISCRSSQSPVHSNRNTYIHWYQQKPGQAPRLLIYKVSNRFSGVPDRFSGSGSGTDFTLKISRVEAEDVGVYYCYQTTQVPYTFGQGTKLEIKRTVAAPSVFIFPPSDEQLKSGTASVVCLLNNFYPREAKVQWKVDNALQSGNSQESVTEQDSKDSTYSLSSTLTLSKADYEKHKVYACEVTHQGLSSPVTKSFNRGEC | 4 |
